Earlier results in paper PMC11111649.

Target: Angiotensin II (Homo sapiens) (UniProt P01019)
Chain of UniProt P01019 (P01019 whole entry, looked up): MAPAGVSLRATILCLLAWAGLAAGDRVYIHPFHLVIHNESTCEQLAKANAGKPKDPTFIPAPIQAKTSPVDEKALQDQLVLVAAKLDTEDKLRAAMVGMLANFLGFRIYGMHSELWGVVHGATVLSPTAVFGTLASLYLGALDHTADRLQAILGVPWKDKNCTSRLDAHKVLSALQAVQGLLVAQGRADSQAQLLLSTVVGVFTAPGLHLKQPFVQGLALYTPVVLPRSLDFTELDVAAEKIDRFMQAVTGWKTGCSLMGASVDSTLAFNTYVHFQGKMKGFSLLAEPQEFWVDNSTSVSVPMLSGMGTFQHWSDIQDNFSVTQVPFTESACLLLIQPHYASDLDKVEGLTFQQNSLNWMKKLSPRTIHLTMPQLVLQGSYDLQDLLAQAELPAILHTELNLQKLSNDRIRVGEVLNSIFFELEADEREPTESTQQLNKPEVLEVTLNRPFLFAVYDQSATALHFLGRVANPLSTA

- Kd: 1 nM
Substance: AT1R (from UniProt P30556)
